Source: article PMC10522637

target: human Toll-like receptor 5 (3xFlag-hTLR5) (human) (UniProt O60602)
UniProt O60602, sequence (O60602 21-858): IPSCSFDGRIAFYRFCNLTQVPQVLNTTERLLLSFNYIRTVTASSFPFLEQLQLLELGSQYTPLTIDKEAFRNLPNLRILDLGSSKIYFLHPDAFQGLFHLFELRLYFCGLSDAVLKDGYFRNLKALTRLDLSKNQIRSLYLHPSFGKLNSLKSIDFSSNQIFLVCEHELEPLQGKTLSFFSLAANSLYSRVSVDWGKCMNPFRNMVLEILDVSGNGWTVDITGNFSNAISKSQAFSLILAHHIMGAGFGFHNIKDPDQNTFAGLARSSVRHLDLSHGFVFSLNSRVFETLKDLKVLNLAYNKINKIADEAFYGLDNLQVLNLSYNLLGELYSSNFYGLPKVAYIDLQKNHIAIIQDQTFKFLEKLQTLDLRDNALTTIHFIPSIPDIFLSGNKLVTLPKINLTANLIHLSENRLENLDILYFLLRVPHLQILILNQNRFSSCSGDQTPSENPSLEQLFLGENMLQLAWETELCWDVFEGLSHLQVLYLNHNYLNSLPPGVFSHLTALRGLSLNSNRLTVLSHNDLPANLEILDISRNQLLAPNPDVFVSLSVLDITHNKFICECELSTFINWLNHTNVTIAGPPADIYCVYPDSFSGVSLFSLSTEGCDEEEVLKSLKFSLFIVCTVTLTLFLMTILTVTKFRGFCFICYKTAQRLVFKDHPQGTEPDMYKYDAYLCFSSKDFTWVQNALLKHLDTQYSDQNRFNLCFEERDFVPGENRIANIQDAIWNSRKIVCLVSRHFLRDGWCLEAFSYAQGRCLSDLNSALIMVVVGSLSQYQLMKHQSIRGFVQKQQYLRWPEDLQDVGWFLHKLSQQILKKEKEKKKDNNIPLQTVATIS

**Q.** “PNGase F-treated (deglycosylated) eFlaB (natural protein)” was tested. Which EC50 of TLR5-dependent NF-κB stimulating activity, HEK-Blue hTLR5 reporter cells did it give?
**A.** 3.88 nM

**Q.** How did the EC50 of TLR5-dependent NF-κB stimulating activity, HEK-Blue hTLR5 reporter cells turn out when “eukaryotic-expressed Vibrio vulnificus FlaB (eFlaB) (natural protein)” was run?
**A.** 13.8 nM

**Q.** With “prokaryotic-expressed Vibrio vulnificus FlaB (pFlaB) (natural protein)” as the substance, how does the EC50 of TLR5-dependent NF-κB stimulating activity, HEK-Blue hTLR5 reporter cells read?
**A.** 3.32 nM
